Results on four substances are retold here after patent US20120156803A1.

Assay [1] concerns the target S. frugiperda (FAW) BBMV proteins / receptor(s) (brush border membrane vesicles from wild type, Cry1Fa-sensitive larvae) (Spodoptera frugiperda). Put plainly: pull-down competition on FAW BBMVs; ^125I-Cry1Fa remaining bound with 1000 nM unlabeled Cry1Ab competitor.
For assay [2] the target is unchanged. Kind of assay: pull-down competition on FAW BBMVs; ^125I-Cry1Fa remaining bound with 1000 nM unlabeled Cry1Ca competitor.
The target in assay [3] is BBMVs prepared from Cry1Fa-resistant S. frugiperda (rFAW) larvae (Spodoptera frugiperda). Put plainly: pull-down assay on rFAW BBMVs, no competitor, phosphor-imaging densitometry.
In assay [4] the target is O. nubilalis (ECB) BBMV proteins (brush border membrane vesicles from wild type, Cry1Fa-sensitive larvae) (Ostrinia nubilalis). Put plainly: saturation binding of radioligand (0.5-20 nM) to 150 ug/mL ECB BBMV proteins, centrifugation and gamma counting.
Assay [5] deals with BBMVs prepared from Cry1Fa-resistant O. nubilalis (rECB) larvae (Ostrinia nubilalis). Kind of assay: pull-down assay on rECB BBMVs, no competitor, phosphor-imaging densitometry.
The target of assay [6] is O. nubilalis (ECB) BBMV proteins (brush border membrane vesicles from wild type, Cry1Fa-sensitive larvae) (Ostrinia nubilalis). Put plainly: pull-down assay on ECB BBMVs, no competitor, phosphor-imaging densitometry.
Assay [7] has as its target S. frugiperda (FAW) BBMV proteins / receptor(s) (brush border membrane vesicles from wild type, Cry1Fa-sensitive larvae) (Spodoptera frugiperda). Kind of assay: pull-down assay on FAW BBMVs, no competitor, phosphor-imaging densitometry.
For assay [8], the target named is BBMVs prepared from Cry1Fa-resistant O. nubilalis (rECB) larvae (Ostrinia nubilalis). Kind of assay: pull-down competition on rECB BBMVs; ^125I-Cry1Fa remaining bound with 1000 nM unlabeled Cry1Fa competitor.
Assay [9] has as its target S. frugiperda (FAW) BBMV proteins / receptor(s) (brush border membrane vesicles from wild type, Cry1Fa-sensitive larvae) (Spodoptera frugiperda). Kind of assay: pull-down competition on FAW BBMVs; ^125I-Cry1Fa remaining bound with 1000 nM unlabeled Cry1Fa competitor.
Assay [10] deals with O. nubilalis (ECB) BBMV proteins (brush border membrane vesicles from wild type, Cry1Fa-sensitive larvae) (Ostrinia nubilalis). Kind of assay: pull-down competition on ECB BBMVs; ^125I-Cry1Fa remaining bound with 1000 nM unlabeled Cry1Fa competitor.

For the substance “Cry1Ab core toxin protein (from UniProt P0A370 29-607) (ligand)”, the Relative Amounts of radio-iodinated Cry1Fa Protein Bound in [1] was -4%.

With “Cry1Ca core toxin protein (from UniProt P0A373) (ligand)”, in [2], the Relative Amounts of radio-iodinated Cry1Fa Protein Bound is 50%.

As for “^125I radiolabeled fluorescein-Cry1Fa core toxin protein (trypsin-truncated) (from UniProt Q03746 1-603) (ligand)”, the Relative Amounts of radio-iodinated Cry1Fa Protein Bound worked out at 10% in assay [3], 64% in assay [5], 100% in assay [6] and 100% in assay [7]. In addition, the Bmax in assay [4] was found to be 37 fmol/mg. Further, the dissociation constant (Kd) in [4] was 0.011 µM.

As for “non-radioactive (unlabeled) Cry1Fa core toxin protein (trypsin-truncated) (from UniProt Q03746 1-603) (ligand)”, the Relative Amounts of radio-iodinated Cry1Fa Protein Bound is 51% in assay [8], 0% in assay [9] and 31% in [10].
